Experimental findings from patent publication US20070190061A1 are described below.

For the experiment, the target named is HMW-MAA-specific idiotypic mAb 763.74. The experiment can be described thus: peptide concentration giving 50% inhibition of biotinylated mAb 763.74 binding to Colo38 cells, cell ELISA.

With ARSNYVGYHVRWYFD [peptide PMK2-23H3 (anti-id mAb MK2-23 H3-derived peptide)], the IC50 was 871 nM.

On to IRSGDEVHYHVTAGPRW [peptide PHMW-MAA.D2.7 (HMW-MAA-derived peptide)], for which the IC50 was 900 nM.

The IC50 is the concentration at which inhibition is half-maximal. A low value points to greater potency in that assay.
